# Patent US20220073643A1 (NANJING GENSCRIPT BIOTECH, published 2022)
# Biological target: T1, human Claudin18.2 (human)
# T1 construct: also called CLDN18.2
# Test: cell ELISA, Claudin18.2-expressing HEK293T cells
# Protocol: To determine protein binding EC₅₀ by Cell ELISA, 96-well U-bottom microplates were pre-blocked with blocking buffer (5% MPBS, 1×PBS with 5% skim milk) overnight at 4° C. On the next day, the Claudin18.2-expressing HEK293T stable cell line was suspended at 1.5×10⁶ cells/ml in blocking buffer, added to the plate in 100 μl/well and incubated at room temperature for 1 hour.
# Raw data were plotted with GraphPad Prism v6.02 software with four parameters, best-fit value program to analyze the EC₅₀.
row,Binder,EC50
1,"241H10A1 (antibody, V domains shown, mouse hybridoma mAb) VH: QVQLQQSGAELVKPGASVKLSCKASGYTFTSFGINWLRQRPEQGLEWIGWIFPGDGNSKYNENFKGKATLTTDKSSSTAYMQVTRLTSEDSAVYFCARFYYGNSFANWGQGTLVTVSA VL: DIVMTQSPSSLTVTAGEKVTMSCKSSQSLLNSGNQKNYLTWYQQKPGQPPKLLIYWAATRESGVPDRFTGSGSGTDFTLTISSVQAEDLAVYYCQNDYFYPFTFGGGTKLELK",1.66 nM
2,"203A6D5 (antibody, V domains shown, mouse hybridoma mAb) VH: QVQLKQSGPGLVQPSQSLSITCTVSGFSLTRYGVHWVRQSPGKGLEWLGVIWSGGNTDYNAAFISRLNIRKDNSKSQVFFKMNSLKPNDTAIYYCARAAYFGNSFDYWGQGTTLTVSS VL: DIVMTQSPSSLPVTAGEKVTMSCKSSQSLLNSGNQKNYLTWYQQKPGQPPKLLIYWASTRDSGVPDRFTGSGSGTDFTLTISSVQAEDLAVYYCQNNYIYPLTFGAGTKLELK",1.16 nM
3,"232F1E4 (antibody, V domains shown, mouse hybridoma mAb) VH: QVQLKESGPGLVAPSQSLSITCTVSGFALTTYGVSWVRQPPGKGLEWLGVIWGDGSTHYHSALISRLSIRKDNSKSQVFLKLNSLQTDDTATYYCAKPGRGNAMDYWGQGTSVTVSS VL: DIVMSQSPSSLTVTAGEKVTMSCKSSQSLLNSGNQKNYLTWYQQKPGQSPKLLIYWASTRESGVPDRFTGSGSGTDFTLTISSMQAEDLAVYYCQNDYIYPLTFGAGTMLELK",0.966 nM
4,"248G8E8 (antibody, V domains shown, mouse hybridoma mAb) VH: QVQLKESGPGLVAPSQSLSITCTVSGFSLTTYGVSWVRQPPGKGLEWLGVIWGDGSTNYHSTLISRLRISKDKSKSQVFLKLNSLQTDDTATYYCAKAGRGNALDYWGQGTSVTVSS VL: DIVLTQSPSSLTVTAGEKVTMSCKSSQSLLNSGNQKNYLTWYQQKPGQPPKLLIYWASTRESGVPDRFTGSGSGTDFTLTISSVQAEDLAVYYCQNDYSFPLTFGAGTKLELK",0.56 nM
5,"234B9D4 (antibody, V domains shown, mouse hybridoma mAb) VH: EIQLQQSGPDLMKPGSSVKISCTASGYSFTSYYIHWVKQSHGKTLEWIGYIDPFNGGTRYNQKFEGKAALTVDKSSTTAYMHLTSLTSDDSAVYYCASLRFFTYWGQGTLVTVSA VL: DIVMTQSPSSLTVTAGEKVTMTCKSSQSLLNSGNQENYLTWYQQKPGQPPKLLISRASTRQSGVPDRFTGSGSGTDFTLTISSVQAEDLAVYYCQNDYSYPLTFGAGTKLELK",4.78 nM
6,"262C7C10 (antibody, V domains shown, mouse hybridoma mAb) VH: QAYLQQSGAELVRSGASVKMSCKASGYTFTNYNIHWVKQTPGQGLEWIGYIYPGNGGNYYNQKFKGKATLTADTSSITAYMQISSLTSEDSAVYFCARDYYGNSFAYWGQGTLVTVSA VL: DIVMTQSPSSLTVTAGEKVTMNCKSSQSLLNSGNQKNYLTWYQQKPGQPPKLLIYWASTRESGVPDRFTGSGSGTDFTLTISSVQAEDLAIYYCQNDYYYPLTFGAGTKLELK",1.77 nM
7,"267B2C5 (antibody, V domains shown, mouse hybridoma mAb) VH: QVQLKESGPGLVAPSQSLAITCTVSGFSLTTYGVSWVRQPPGKGLEWLGVIWGDGSTHYHSALISRLSIRKDNSKSQVFLKVNSLQTDDTATYYCGKPGRGNAMDYWGQGTSVTVSS VL: DIVMTQSPSSLTVTAGEKVTMSCKSSQSLLNSGNQKNYLTWYQQKPGQSPKLLIYWASTRESGVPDRFTGSGSGTDFTLTISSVQAEDLAVYYCQNDYIYPLTFGGGTTLELK",0.895 nM
8,"266B11F7 (antibody, V domains shown, mouse hybridoma mAb) VH: QVQMKESGPGLVAPSQSLSITCTVSGFSLTTYGVTWVRQPPGKGLEWLGVIWGDGSTNYHSALTSRLRISKDKSKSQVFLKLSSLQTDDTATYYCAKPGRGNALDYWGQGTSVTVSS VL: DIVMTQSPSSLTVTAGEKVTMRCKSSQSLLNSGNQKNYLTWYQQKPGQPPKLLVYWASTRESGVPDRFTGSGSGTDFTLTVSSVQAEDLAVYYCQNDYIFPLTFGAGTKLELK",~0.397 nM
9,"268D7H9 (antibody, V domains shown, mouse hybridoma mAb) VH: QAYLQQSGAELVRSGASVKMSCKASGYTFTNYNIHWVKQTPGQGLEWIGYIYPGNGGNYYNQKFKGKATLTADTSSSTAYMQISSLTSEDSAVYFCARDYYGNSFAYWGQGTLVTVSA VL: DIAMTQSPSSLTVTAGEKVTMNCKSSQSLLNSGNQKNYLTWYQQKPGQPPKLLIYWASTRESGVPDRFTGSGSGTDFTLTISSVQAEDLAIYYCQNDYYYPLTFGAGTTLELK",~0.411 nM
10,"248E6A7 (antibody, V domains shown, mouse hybridoma mAb) VH: QAYLQQSGAELVRSGASVKMSCRASGYTFTSHNMHWVKQTPGQGLEWIGYIYPGNGNTYYNQKFKVKATLTADTSSNTAYMQINSLTSEDSAVYFCVRDYYGNSFVYWGQGTLVTVSA VL: DVVMTQSPSSLTEKTGEKVTMTCKSSQSLLNSGNQKNYLAWYQQKPGQPPKLLIYWASTRESGVPDRFIGSGSGTDFTLTISSLQTEDLAVYYCQNNYMYPFTFGAGTKLELK",0.396 nM
11,"185F2G12 (antibody, V domains shown, mouse hybridoma mAb) VH: QAYLQQSGAELVRSGASVKMSCKASGYTFTSYNMHWVRQTPGQGLEWIGYIYPGNGGTNYSQKFKGKASLTADTSSTTAYMQISSLTSEDSAVYFCATGRGFAYWGQGTLVTVSA VL: DIVMTQSPSSLTVTAGEKVTLSCKSSQSLFNTGNQKNYLTWYQQKPGQPPKLLIFRASTRESGVPDRFTGSGFGTDFTLTISSVQAEDLAVYYCQNDFSYPLTFGAGTKLELK",1.73 nM

# Further binders by falling EC50, results first:
row,EC50,Binder
1,2.57 nM,"194A2F7 (antibody, V domains shown, mouse hybridoma mAb) VH: QIQLVQSGPELKKPGETVKISCKASGYTFTDYLIHWVKQAPGKGLKWMGWINTETGEPTYADDFKGRFALSLETSASTACLQINNLKNEDTATYFCARIYYGNSFDYWGQGTTLTVSS VL: DIVMTQSPSSLPVTAGEKVTMTCKSSQNLLNSGNQKSYLTWYQQKPGQPPKLLIYWASTRETGVPDRFTGSGSGTDFTLTISSVQAEDLAVYYCQNAYRFPFTFGAGTRLELK"
2,2.21 nM,"186G12H3 (antibody, V domains shown, mouse hybridoma mAb) VH: EVMLVESGGGLVKPGGSLKLSCAASRFTLSSYAMSWVRQTPEKRLEWVATISSGGSYTYYFDSVKGRFTISRDTAKNTLNLQMSSLRSEDTAMYYCARLYYGNALDYWGQGTSVTVSS VL: DIVMTQSPSSLTVTAGEKVTVSCKSSQSLLNSGNQKNYLTWYQQKPGQPPKLLIYWASTRESGVPDRFTGSGSGTDFTLTISSVQAEDLAVYYCQNNYIYPLTFGAGTTLELK"
3,1.91 nM,"231C11E9 (antibody, V domains shown, mouse hybridoma mAb) VH: EVMLVESGGGLVKPGGSLKLSCAASGFTFNNYVMCWVRQTPEKRLEWVATISSGNFYTYYPDSVKGRFTISRDNAKNTLYLQMSSLRSEDTAIYYCASLGRGNALDNWGQGTSVTVSS VL: DIVMTQSPASLTVTAKEKVTMSCRSSQSLLNSGNQKNYLTWYQQKPGQPPKLLIYWASTRESGVPDRFTGSGSGTDFTLTISSVQAEDLAVYYCQNDYSYPFTFGSGTKLEIK"
4,1.9 nM,"237D2A4 (antibody, V domains shown, mouse hybridoma mAb) VH: QVQLKESGPGLVAPSQSLSITCTVSGFSLTSYGVSWVRQPPGKGLEWLGVIWGDGSTNYHSTLISRLRISKDKSKSQVFLKLNSLQTDDTATYYCAKAGRGNALDYWGQGTSVTVSS VL: DIVMTQSPSSLTVTAGEKVTMSCKSSQSLLNSGNQKNYLTWYQQKPGQPPKLLIYWASTRESGVPDRFTGSGSGTDFTLTISSVQAEDLAVYYCQNDYSFPLTFGAGTKLELK"
5,1.78 nM,"196A12B10 (antibody, V domains shown, mouse hybridoma mAb; also called 196Al2B10) VH: QIQWVQSGPELKKPRETVKISCKASGYTFTDYSMHWVKQAPGKGLKWMGWINSETGEATYADDFRGRFALSLETSATTAFLQINSLKNEDTGTYFCARFYYGNSFASWGQGTTLTVSS VL: DIVMTQFPSSLTVTAGEKVTMTCKSSQSLLNGGNQKNYLTWYQQKPGLPPKLLIYWASTRESGVPDRFTGSGSGTEFTLTISSVQAEDLAVYYCQNNYYFPLTFGAGTKLELK"
6,0.88 nM,"240F8G2 (antibody, V domains shown, mouse hybridoma mAb) VH: QAYLQQSGAELVRSGASVKMSCKASGYTFTNYNIHWVKQTPGQGLEWIGYIYPGNGGNYYNQKFKGKATLTADTSSSTAYMQISSLTSEDSAVYFCARDYYGNSFAYWGQGTLVTVSA VL: DIVVTQSPSSLTVTAGEKVTMNCKSSQSLLNSGNQKNYLTWYQQKPGQPPKLLIYWASTRESGVPDRFTGSGSGTDFTLTISSVQAEDLAIYYCQNDYYYPLTFGAGTKLELK"
7,0.857 nM,"234A10F7 (antibody, V domains shown, mouse hybridoma mAb) VH: QVQLQQSGAELVKPGASVKLSCKASGYTFTSFGINWLRQRPEQGLEWIGWIFPGDGNSKYNENFKGKATLTTDKSSSTAYMQLTRLTSEDSAVYFCARFYYGNSFAYWGQGTLVTVSA VL: DIVMTQSPSSLTVTTGQKVTMSCKSSQSLLNSGNQKNYLTWYQQKPGQPPKLLIYWAATRESGVPDRFTGSGSGTDFTLTISSVQAEDLAVYYCQNDYFYPFTFGAGTKLELK"
8,0.646 nM,"240A8E7 (antibody, V domains shown, mouse hybridoma mAb) VH: QAYLQQSGAELVRSGASVKMSCKASGYTFTNYNIHWVKQTPGQGLEWIGYIYPGNGDNYYNQKFKGKATLTADTSSSTAYMQISSLTSEDSAVYFCARDYYGNSFAYWGQGTLVTVSA VL: DVVMTQSPSSLTVTAGEKVTMNCKSSQSLLNSGNQKNYLTWYQQKPGQPPKMLIYWASTRESGVPDRFTGSGSGTDFTLTISSVQAEDLAIYYCQNDYYYPFTFGAGTKLELK"
9,0.611 nM,"253E4F7 (antibody, V domains shown, mouse hybridoma mAb) VH: EIQLQQSGPELMKPGASVKMSCKASGYSFTSYYIHWVKQSHGKSLEWIGYIDPFNGGTRYNQKFEGKATLTVDKSSTTAYMHLSSLTSEDSTVYYCASLRFLAYWGQGTLVTVSA VL: DIVMTQSPSSLTVTAGEKVTMTCKSSQSLLNSGNQKNYLTWYQQKPGQPPKVLISRASTRQSGVPDRFTGSGSGTDFTLTISSVQAEDLAVYYCQNDYSYPLTFGAGTKLELK"
10,0.181 nM,"273C10E5 (antibody, V domains shown, mouse hybridoma mAb) VH: QVQLQQSGAELVKPGASVKLSCKASGYTFTSFGINWLRQRPEQGLEWIGWIFPGDGNSKYNENFKGKATLTTDKSSSTAYMQVTRLTSEDSAVYFCARFYYGNSFANWGQGTLVTVSA VL: DIVMTQSPSSLTVTAGEKVTMSCKSSQSLLNSGNQKNYLTWYQQKPGQPPKLLIYWAATRESGVPDRFAGSGSGTDFTLTISSVQAEDLAVYYCQNDYFYPFTFGAGTKLELK"
